Binding result, EC50 and Kd data for seven molecules are collected here from patent US20120269817A1 (Bayer, published 2012).

The target of one assay is T1, BSA (bovine, UniProt P02769 25-607).
T1 construct: also called bovine serum albumin
As to the kind of experiment: ELISA. On the procedure: (§1) To select antibody clones that bind to human TFPI, Fab genes of the phage clones from the second and third round of panning were subcloned into a bacterial expression vector and expressed in E. coli strain TG1. The bacterial lysate was added to the wells of the human TFPI-coated Maxisorp plates. After washing, HRP-conjugated goat anti-human Fab was used as a detection antibody and the plates were developed by adding AmplexRed (Invitrogen) with hydrogen peroxide. A signal of at least five-fold higher than the background was considered as positive. The cross reactivity of the anti-human TFPI antibodies to mouse TFPI was determined by a similar mouse TFPI-binding ELISA. The plates were coated with mouse TFPI (R&D System), BSA and lysozyme. The later two antigens were used as negative controls.

Assay [1] concerns the target T2, human tissue factor pathway inhibitor (TFPI) (human, UniProt P10646 29-304, limits assumed).
T2 construct: Bought protein; also called human TFPI; hTFPI
T2 sequence (looked up): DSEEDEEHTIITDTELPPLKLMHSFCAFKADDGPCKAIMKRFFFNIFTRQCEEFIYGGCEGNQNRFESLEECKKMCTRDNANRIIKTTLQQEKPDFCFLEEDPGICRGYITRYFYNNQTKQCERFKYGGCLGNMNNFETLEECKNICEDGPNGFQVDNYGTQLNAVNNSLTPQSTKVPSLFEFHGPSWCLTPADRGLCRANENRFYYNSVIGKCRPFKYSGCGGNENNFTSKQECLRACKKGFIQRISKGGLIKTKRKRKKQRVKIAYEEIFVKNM
Put plainly: ELISA, Fab lysate on coated human TFPI. On the procedure:
as §1
Background: ELISA stands for enzyme-linked immunosorbent assay.

In assay [2] the target is T2, human tissue factor pathway inhibitor …. Put plainly: ELISA, Fab on coated TFPI. On the procedure:
as §1
(§2) Purified Fab antibodies were used to determine EC₅₀ of anti-TFPI antibodies to human or mouse TFPI. EC₅₀ was assessed in an ELISA, similarly as described above. The results were analyzed using SoftMax. The binding affinity of anti-TFPI antibodies was determined in a Biacore assay. Briefly, the antigen, either human or mouse TFPI, was immobilized on the CM5-chips using the amine coupling kit (GE HealthCare) according to the instructions of the manufacturer. The amount of immobilized TFPI was adjusted to the mass of the antigen to give approximate 300 RU. The antibody Fabs were analyzed in mobile phase and at least five different concentrations (0.1, 0.4, 1.6, 6.4 and 25 nM) of the purified antibodies were used in the Biacore assay. The kinetics and binding affinity were calculated using Biacore T100 Evaluation software.

The target is the same in assay [3]. As to the kind of experiment: Biacore, TFPI on CM5 chip, Fab in mobile phase. As to the method:
as §2

T1 sequence (P02769 25-607 limits assumed): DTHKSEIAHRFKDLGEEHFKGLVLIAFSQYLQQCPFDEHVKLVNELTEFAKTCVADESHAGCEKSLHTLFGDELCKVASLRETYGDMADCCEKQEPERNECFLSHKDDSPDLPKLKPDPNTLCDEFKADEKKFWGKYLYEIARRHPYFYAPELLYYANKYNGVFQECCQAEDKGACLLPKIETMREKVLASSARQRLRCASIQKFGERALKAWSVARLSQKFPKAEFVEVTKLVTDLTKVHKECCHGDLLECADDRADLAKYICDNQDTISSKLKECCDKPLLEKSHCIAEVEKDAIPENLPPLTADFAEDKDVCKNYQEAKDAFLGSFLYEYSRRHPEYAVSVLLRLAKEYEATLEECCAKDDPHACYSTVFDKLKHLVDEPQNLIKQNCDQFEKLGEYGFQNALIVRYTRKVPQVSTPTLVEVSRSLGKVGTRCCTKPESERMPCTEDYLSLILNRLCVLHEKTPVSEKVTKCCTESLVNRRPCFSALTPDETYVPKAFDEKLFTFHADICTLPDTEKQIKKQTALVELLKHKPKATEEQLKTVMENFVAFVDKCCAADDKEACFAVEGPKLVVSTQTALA

B1: TP-3F1 Fab (Fab, V domains shown)
VH: QVQLVQSGAEVKKPGESLKISCKGSGYSFTDYWIGWVRQMPGKGLEWMGIIQPSDSDTNYSPSFQGQVTISADKSISTAYLQWSSLKASDTAMYYCARFMWWGKYDSGFDVWGQGTLVTVSS
VL: DIELTQPPSVSVAPGQTARISCSGDNIGSYFASWYQQKPGQAPVLVIYDDSNRPSGIPERFSGSNSGNTATLTISGTQAEDEADYYCEGSNVFGGGTKLTVLG
notes: Human Fab from HuCal Gold, expressed in E. coli TG1
Take B1: the binding result in the assay with BSA is “no binding”.

B2: TP-2A6 Fab (Fab, V domains shown)
VH: QVQLVESGGGLVQPGGSLRLSCAASGFTFSRYAMSWVRQAPGKGLEWVSSIISSSSETYYADSVKGRFTISRDNSKNTLYLQMNSLRAEDTAVYYCARLMGYGHYYPFDYWGQGTLVTVSS
VL: DIELTQPPSVSVAPGQTARISCSGDKIGSKYVYWYQQKPGQAPVLVIYDSNRPSGIPERFSGSNSGNTATLTISGTQAEDEADYYCASYDSIYSYWVFGGGTKLTVLG
notes: as for B1
Consider B2, for which the results for the binding result (with BSA; in assay [1]) were “no binding” and “binds”, respectively.

B3: TP-4A9 Fab (Fab, V domains shown)
VH: QVQLVESGGGLVQPGGSLRLSCAASGFTFSSYGMSWVRQAPGKGLEWVSLISGVSSSTYYADSVKGRFTISRDNSKNTLYLQMNSLRAEDTAVYYCARSYLGYFDVWGQGTLVTVSS
VL: DIELTQPPSVSVAPGQTARISCSGDALGKYYASWYQQKPGQAPVLVIYGDNKRPSGIPERFSGSNSGNTATLTISGTQAEDEADYYCQSYTTRSLVFGGGTKLTVLG
notes: as for B1
By EC50 is commonly meant the concentration at which the effect is half-maximal. One may read the Kd as the equilibrium constant for the complex coming apart. A low value points to a tighter complex. B3: in the assay with BSA, the binding result is given as “no binding”. For the same molecule, a half-maximal response in assay [2] (EC50) required 0.17 nM. The molecule also gave a Kd in assay [3] of 7.6 nM.

B4: TP-2B1 Fab (Fab, V domains shown)
VH: QVQLVESGGGLVQPGGSLRLSCAASGFTFSSYSMSWVRQASGKGLEWVSSIKGSGSNTYYADSVKGRFTISRDNSKNTLYLQMNSLRAEDTAVYYCARNGGLIDVWGQGTLVTVSS
VL: DIELTQPPSVSVAPGQTARISCSGDNLGNKYAHWYQQKPGQAPVLVIYYDNKRPSGIPERFSGSNSGNTATLTISGTQAEDEADYYCQSWTPGSNTMVFGGGTRLTVLG
notes: as for B1
For B4, the binding result with BSA was “no binding”; in assay [1] it was “binds”.

B5: TP-2B8 Fab (Fab, V domains shown)
VH: QVQLVQSGAEVKKPGASVKVSCKASGYTFTGNSMHWVRQAPGQGLEWMGTIFPYDGTTKYAQKFQGRVTMTRDTSISTAYMELSSLRSEDTAVYYCARGVHSYFDYWGQGTLVTVSS
VL: DIELTQPPSVSVAPGQTARISCSGDNLRGYYASWYQQKPGQAPVLVIYEDNNRPSGIPERFSGSNSGNTATLTISGTQAEDEADYYCQSWDSPYVHVFGGGTKLTVLG
notes: as for B1
For B5, the binding result with BSA was “no binding”; in assay [1], “binds”.

B6: TP-2B4 Fab (Fab, V domains shown)
VH: QVQLVESGGGLVQPGGSLRLSCAASGFTFSNYSMTWVRQAPGKGLEWVSGISYNGSNTYYADSVKGRFTISRDNSKNTLYLQMNSLRAEDTAVYYCARIYYMNLLAGWGQGTLVTVSS
VL: DIELTQPPSVSVAPGQTARISCSGDALGTYYAYWYQQKPGQAPVLVIYGDMNRPSGIPERFSGSNSGNTATLTISGTQAEDEADYYCQSYDAGVKPAVFGGGTKLTVLG
notes: as for B1
Regarding B6, the binding result with BSA is “no binding”; in assay [1], “binds”.

B7: TP-2A10 Fab (Fab, V domains shown)
VH: QVQLVESGGGLVQPGGSLRLSCAASGFTFTSYSMNWVRQAPGKGLEWVSAISYTGSNTHYADSVKGRFTISRDNSKNTLYLQMNSLRAEDTAVYYCARAFLGYKESYFDIWGQGTLVTVSS
VL: DIELTQPPSVSVAPGQTARISCSGDKLGKKYVHWYQQKPGQAPVLVIYGDDKRPSGIPERFSGSNSGNTATLTISGTQAEDEADYYCQAWGSISRFVFGGGTKLTVLG
notes: as for B1
Turning to B7, the figures for the binding result (with BSA; in assay [1]) were “no binding” and “binds”, respectively.
